This note sets out measurements from the supplement of paper PMC9112550, “Optimization of the antimicrobial peptide Bac7 by deep mutational scanning” (BMC Biology, 2022).
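Note: peptides expressed intracellularly from a pBAD plasmid library in pooled LB shake-flask culture, induced with 0.3% L-arabinose, DNA abundance read by NGS, three biological replicates, DESeq2 with apeglm shrinkage.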

In this data set the test system is Escherichia coli TOP10. Kind of data set: shrunken log2 fold change of peptide-encoding DNA abundance (4.5 h post-induction vs induction); higher = less antimicrobial activity (less host growth inhibition). Conditions: time post-induction: 4.5 h; library: site-saturation at positions 5, 18, 19, 20.
Regarding RRIRNRPPRLPRPRPRPQYAPRP, the “shrunken log2 fold change” value was -0.0234. The result for RRIRDRPPRLPRPRPRPEAHPRP reads -0.00146. With RRIRMRPPRLPRPRPRPHCMPRP the figure was -0.122. For RRIRMRPPRLPRPRPRPMYPPRP, the “shrunken log2 fold change” value was -0.00194. RRIRTRPPRLPRPRPRPKDWPRP: the “shrunken log2 fold change” value worked out at 0.358. In the case of RRIRYRPPRLPRPRPRPAPSPRP, the “shrunken log2 fold change” value was -0.0165. For RRIRARPPRLPRPRPRPVQWPRP, the “shrunken log2 fold change” value was 0.546. Consider RRIRKRPPRLPRPRPRPCPVPRP, for which the “shrunken log2 fold change” value was -0.106. With RRIRVRPPRLPRPRPRPMSSPRP the figure was 0.0619; with RRIRMRPPRLPRPRPRPQQIPRP, 0.0607. Turning to RRIRIRPPRLPRPRPRPTFHPRP, the “shrunken log2 fold change” value is -0.266.

For RRIRMRPPRLPRPRPRPDCIPRP, the “shrunken log2 fold change” value was 1.76. Turning to RRIRCRPPRLPRPRPRPLHTPRP, the “shrunken log2 fold change” value is -0.0899. For RRIRFRPPRLPRPRPRPVLPPRP, the “shrunken log2 fold change” value is -0.371. For the sequence RRIRLRPPRLPRPRPRPHAFPRP, the “shrunken log2 fold change” value was -0.208. Regarding RRIRDRPPRLPRPRPRPMLRPRP, the “shrunken log2 fold change” value stood at 0.0179.

In the case of RRIRRRPPRLPRPRPRPQWDPRP, the “shrunken log2 fold change” value stood at 0.0215. Turning to RRIRMRPPRLPRPRPRPLVVPRP, the “shrunken log2 fold change” value came out at 0.0644. In the case of RRIRKRPPRLPRPRPRPWGIPRP, the “shrunken log2 fold change” value is -0.168.

Take RRIRMRPPRLPRPRPRPVICPRP: the “shrunken log2 fold change” value was 0.00711.

Regarding RRIRARPPRLPRPRPRPNVDPRP, the “shrunken log2 fold change” value was 0.0662. The result for RRIRFRPPRLPRPRPRPLIMPRP reads -0.352; that for RRIRGRPPRLPRPRPRPILAPRP, 0.492; that for RRIRHRPPRLPRPRPRPMRTPRP, -0.11. The result for RRIRQRPPRLPRPRPRPADMPRP reads -0.0927; that for RRIRDRPPRLPRPRPRPATNPRP, 0.0922. Consider RRIRKRPPRLPRPRPRPGIDPRP, for which the “shrunken log2 fold change” value worked out at 0.792. Turning to RRIRNRPPRLPRPRPRPMNSPRP, the “shrunken log2 fold change” value was -0.148. As for RRIRHRPPRLPRPRPRPLFWPRP, the “shrunken log2 fold change” value worked out at 0.274. RRIRERPPRLPRPRPRPWECPRP: the “shrunken log2 fold change” value is -0.0135. Regarding RRIRRRPPRLPRPRPRPHQAPRP, the “shrunken log2 fold change” value is -0.019.

For RRIRCRPPRLPRPRPRPNNEPRP, the “shrunken log2 fold change” value is -0.529. In the case of RRIRVRPPRLPRPRPRPLYEPRP, the “shrunken log2 fold change” value was -0.168. In the case of RRIRMRPPRLPRPRPRPVWQPRP, the “shrunken log2 fold change” value amounted to 0.752.

Take RRIRGRPPRLPRPRPRPLKYPRP: the “shrunken log2 fold change” value turned out to be 0.145. As for RRIRARPPRLPRPRPRPENRPRP, the “shrunken log2 fold change” value amounted to 0.0495.

For RRIRWRPPRLPRPRPRPDPEPRP, the “shrunken log2 fold change” value was 0.159. With RRIRTRPPRLPRPRPRPVWNPRP the figure was -0.117; with RRIRVRPPRLPRPRPRPLEHPRP, -0.22; with RRIRPRPPRLPRPRPRPLSWPRP, 0.238.

On to RRIRHRPPRLPRPRPRPTYEPRP, for which the “shrunken log2 fold change” value was found to be 0.15. Regarding RRIRPRPPRLPRPRPRPEYFPRP, the “shrunken log2 fold change” value was -0.185.

On to RRIRHRPPRLPRPRPRPYEGPRP, for which the “shrunken log2 fold change” value is -0.0203. Regarding RRIRIRPPRLPRPRPRPEHNPRP, the “shrunken log2 fold change” value is -0.505. RRIRGRPPRLPRPRPRPPAIPRP: the “shrunken log2 fold change” value worked out at 0.859.

Turning to RRIRARPPRLPRPRPRPKQHPRP, the “shrunken log2 fold change” value turned out to be 0.312. The result for RRIRSRPPRLPRPRPRPQFIPRP reads -1.79; that for RRIRPRPPRLPRPRPRPWAIPRP, -0.0391; that for RRIRWRPPRLPRPRPRPYSFPRP, -0.107. The result for RRIRARPPRLPRPRPRPLRPPRP reads 1.08. Take RRIRGRPPRLPRPRPRPRGPPRP: the “shrunken log2 fold change” value was found to be 1.66. The result for RRIRKRPPRLPRPRPRPMEVPRP reads 0.101; that for RRIRSRPPRLPRPRPRPAEDPRP, -0.0146. As for RRIRARPPRLPRPRPRPHHKPRP, the “shrunken log2 fold change” value is -0.347. For the sequence RRIRARPPRLPRPRPRPWDLPRP, the “shrunken log2 fold change” value is 0.612.

On to RRIRMRPPRLPRPRPRPKYQPRP, for which the “shrunken log2 fold change” value was 0.0592. Regarding RRIRQRPPRLPRPRPRPHIQPRP, the “shrunken log2 fold change” value is -0.444. With RRIRGRPPRLPRPRPRPMSHPRP the figure was 0.225; with RRIRFRPPRLPRPRPRPRWKPRP, 0.217. On to RRIRERPPRLPRPRPRPMMQPRP, for which the “shrunken log2 fold change” value was -0.0983. As for RRIRDRPPRLPRPRPRPEWKPRP, the “shrunken log2 fold change” value is -0.0135. As to RRIRPRPPRLPRPRPRPHISPRP, the “shrunken log2 fold change” value was -0.422. In the case of RRIRPRPPRLPRPRPRPMSFPRP, the “shrunken log2 fold change” value was -0.0289.

RRIRHRPPRLPRPRPRPPKHPRP: the “shrunken log2 fold change” value was determined as 0.2. On to RRIRRRPPRLPRPRPRPTSYPRP, for which the “shrunken log2 fold change” value was -0.0452. For the sequence RRIRMRPPRLPRPRPRPNFVPRP, the “shrunken log2 fold change” value came to 0.0215. The result for RRIRERPPRLPRPRPRPAPKPRP reads 0.678; that for RRIRERPPRLPRPRPRPLDRPRP, 0.0551. The result for RRIRLRPPRLPRPRPRPTMDPRP reads -0.0334. On to RRIRLRPPRLPRPRPRPRVMPRP, for which the “shrunken log2 fold change” value turned out to be 0.0356.

For the sequence RRIRWRPPRLPRPRPRPCYTPRP, the “shrunken log2 fold change” value is -0.382. For RRIRARPPRLPRPRPRPNFHPRP, the “shrunken log2 fold change” value came out at 0.0254. For RRIRQRPPRLPRPRPRPKACPRP, the “shrunken log2 fold change” value is 0.0193. For the sequence RRIRDRPPRLPRPRPRPGRIPRP, the “shrunken log2 fold change” value was -0.136. As to RRIRGRPPRLPRPRPRPQHQPRP, the “shrunken log2 fold change” value came to 0.524. As for RRIRFRPPRLPRPRPRPLGYPRP, the “shrunken log2 fold change” value was found to be 0.0222.

Turning to RRIRDRPPRLPRPRPRPVKAPRP, the “shrunken log2 fold change” value worked out at 0.026.

Regarding RRIRERPPRLPRPRPRPHVMPRP, the “shrunken log2 fold change” value is -0.957.

RRIRERPPRLPRPRPRPDVPPRP: the “shrunken log2 fold change” value was -0.117.

As to RRIRKRPPRLPRPRPRPNSSPRP, the “shrunken log2 fold change” value was -0.0248. With RRIRYRPPRLPRPRPRPREAPRP, the “shrunken log2 fold change” value turned out to be 0.469. The result for RRIRHRPPRLPRPRPRPWDWPRP reads -0.00132; that for RRIRKRPPRLPRPRPRPIDTPRP, -0.0729; that for RRIRTRPPRLPRPRPRPNELPRP, -0.0115. Take RRIRARPPRLPRPRPRPMTSPRP: the “shrunken log2 fold change” value came out at 0.237. With RRIRCRPPRLPRPRPRPCSWPRP the figure was 0.0276; with RRIRMRPPRLPRPRPRPIHEPRP, -0.301; with RRIRSRPPRLPRPRPRPMQSPRP, -0.00143. Take RRIRSRPPRLPRPRPRPPKEPRP: the “shrunken log2 fold change” value is 1.07. The result for RRIRGRPPRLPRPRPRPNDTPRP reads 0.188. As for RRIRVRPPRLPRPRPRPYYIPRP, the “shrunken log2 fold change” value is -0.284.

In the case of RRIRDRPPRLPRPRPRPIYIPRP, the “shrunken log2 fold change” value is -0.288. As to RRIRARPPRLPRPRPRPDEFPRP, the “shrunken log2 fold change” value turned out to be 0.331. As to RRIRLRPPRLPRPRPRPHSDPRP, the “shrunken log2 fold change” value is -0.175. On to RRIRKRPPRLPRPRPRPDELPRP, for which the “shrunken log2 fold change” value worked out at 2.45. In the case of RRIRTRPPRLPRPRPRPGDKPRP, the “shrunken log2 fold change” value turned out to be 0.137.

With RRIRNRPPRLPRPRPRPFSVPRP, the “shrunken log2 fold change” value is -0.678.

As for RRIRMRPPRLPRPRPRPAEFPRP, the “shrunken log2 fold change” value was determined as 1.15.

With RRIRIRPPRLPRPRPRPPECPRP, the “shrunken log2 fold change” value is -0.17. The result for RRIRSRPPRLPRPRPRPVGQPRP reads 0.236; that for RRIRFRPPRLPRPRPRPCIDPRP, 0.255; that for RRIRPRPPRLPRPRPRPWIMPRP, -0.236. With RRIRERPPRLPRPRPRPDTCPRP the figure was -0.0337.

In the case of RRIRMRPPRLPRPRPRPPSMPRP, the “shrunken log2 fold change” value came to 0.761.

RRIRMRPPRLPRPRPRPTPHPRP: the “shrunken log2 fold change” value turned out to be 1.13.

For the sequence RRIRCRPPRLPRPRPRPVYHPRP, the “shrunken log2 fold change” value is -0.53.

For RRIRARPPRLPRPRPRPDMRPRP, the “shrunken log2 fold change” value is 0.737. For RRIRDRPPRLPRPRPRPDCTPRP, the “shrunken log2 fold change” value was 0.185. Turning to RRIRKRPPRLPRPRPRPCMSPRP, the “shrunken log2 fold change” value is -0.0865. Take RRIRERPPRLPRPRPRPIWFPRP: the “shrunken log2 fold change” value came out at 0.0591. As to RRIRYRPPRLPRPRPRPDAGPRP, the “shrunken log2 fold change” value is -0.492. For the sequence RRIRWRPPRLPRPRPRPEGWPRP, the “shrunken log2 fold change” value turned out to be 1.39. With RRIRWRPPRLPRPRPRPSISPRP, the “shrunken log2 fold change” value was -0.283.

With RRIRKRPPRLPRPRPRPDSVPRP, the “shrunken log2 fold change” value was found to be 0.0996. Turning to RRIRCRPPRLPRPRPRPYNSPRP, the “shrunken log2 fold change” value is -0.325.

As to RRIRYRPPRLPRPRPRPNTDPRP, the “shrunken log2 fold change” value was -0.964. For RRIRKRPPRLPRPRPRPETYPRP, the “shrunken log2 fold change” value was -0.00198. With RRIRFRPPRLPRPRPRPCPVPRP the figure was -0.618; with RRIRERPPRLPRPRPRPYVQPRP, -0.0184; with RRIRTRPPRLPRPRPRPDMEPRP, -0.132. Consider RRIRVRPPRLPRPRPRPKWHPRP, for which the “shrunken log2 fold change” value is -0.123. The result for RRIRTRPPRLPRPRPRPGFCPRP reads 0.106. For the sequence RRIRLRPPRLPRPRPRPAISPRP, the “shrunken log2 fold change” value worked out at 0.118.

As for RRIRYRPPRLPRPRPRPTMRPRP, the “shrunken log2 fold change” value amounted to 0.243. With RRIRCRPPRLPRPRPRPVGTPRP the figure was -0.149.
